Measurements taken from US20160122742A1 (published 2016).

Experiments:
[1] = target: T1, Flag tagged ORC5 (UniProt O43913)
T1 sequence: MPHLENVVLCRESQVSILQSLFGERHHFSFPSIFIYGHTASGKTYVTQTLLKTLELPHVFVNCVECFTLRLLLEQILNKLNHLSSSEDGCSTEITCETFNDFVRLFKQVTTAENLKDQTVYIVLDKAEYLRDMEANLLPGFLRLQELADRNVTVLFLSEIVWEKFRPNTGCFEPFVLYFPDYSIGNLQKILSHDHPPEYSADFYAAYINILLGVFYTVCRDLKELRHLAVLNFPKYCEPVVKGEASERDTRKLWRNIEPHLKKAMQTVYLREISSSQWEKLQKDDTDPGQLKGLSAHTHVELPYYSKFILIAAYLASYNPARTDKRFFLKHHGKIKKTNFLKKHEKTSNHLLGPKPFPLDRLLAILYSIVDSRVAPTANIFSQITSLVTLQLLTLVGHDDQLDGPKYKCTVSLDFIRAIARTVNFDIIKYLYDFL

[2] = target: T2, Flag tagged ORC1 (N-terminal Flag, pCS2-Flag)
T2 chain: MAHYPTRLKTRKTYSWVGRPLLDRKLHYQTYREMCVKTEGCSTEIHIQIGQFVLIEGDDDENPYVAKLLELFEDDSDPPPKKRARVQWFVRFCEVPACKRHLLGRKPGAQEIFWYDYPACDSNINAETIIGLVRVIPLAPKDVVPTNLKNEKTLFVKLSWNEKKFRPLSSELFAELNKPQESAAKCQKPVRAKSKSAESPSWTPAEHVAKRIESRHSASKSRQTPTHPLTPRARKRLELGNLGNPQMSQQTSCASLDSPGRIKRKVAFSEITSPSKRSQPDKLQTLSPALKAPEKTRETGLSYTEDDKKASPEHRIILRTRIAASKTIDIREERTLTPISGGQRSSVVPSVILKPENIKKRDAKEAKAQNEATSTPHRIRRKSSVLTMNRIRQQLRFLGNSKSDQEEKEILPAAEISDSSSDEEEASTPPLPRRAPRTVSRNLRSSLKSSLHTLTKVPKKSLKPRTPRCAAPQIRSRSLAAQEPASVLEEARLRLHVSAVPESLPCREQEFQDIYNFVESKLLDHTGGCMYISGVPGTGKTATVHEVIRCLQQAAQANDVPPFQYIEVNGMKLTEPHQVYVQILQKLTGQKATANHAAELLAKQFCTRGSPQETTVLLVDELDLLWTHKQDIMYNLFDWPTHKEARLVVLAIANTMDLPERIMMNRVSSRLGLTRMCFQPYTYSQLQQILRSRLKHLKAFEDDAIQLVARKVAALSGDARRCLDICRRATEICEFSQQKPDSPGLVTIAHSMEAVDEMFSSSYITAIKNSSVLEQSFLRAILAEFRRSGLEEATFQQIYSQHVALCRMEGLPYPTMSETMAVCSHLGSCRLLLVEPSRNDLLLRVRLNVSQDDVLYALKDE

[3] = target: T3, Flag tagged ORC3, Q9UBD5
T3 chain: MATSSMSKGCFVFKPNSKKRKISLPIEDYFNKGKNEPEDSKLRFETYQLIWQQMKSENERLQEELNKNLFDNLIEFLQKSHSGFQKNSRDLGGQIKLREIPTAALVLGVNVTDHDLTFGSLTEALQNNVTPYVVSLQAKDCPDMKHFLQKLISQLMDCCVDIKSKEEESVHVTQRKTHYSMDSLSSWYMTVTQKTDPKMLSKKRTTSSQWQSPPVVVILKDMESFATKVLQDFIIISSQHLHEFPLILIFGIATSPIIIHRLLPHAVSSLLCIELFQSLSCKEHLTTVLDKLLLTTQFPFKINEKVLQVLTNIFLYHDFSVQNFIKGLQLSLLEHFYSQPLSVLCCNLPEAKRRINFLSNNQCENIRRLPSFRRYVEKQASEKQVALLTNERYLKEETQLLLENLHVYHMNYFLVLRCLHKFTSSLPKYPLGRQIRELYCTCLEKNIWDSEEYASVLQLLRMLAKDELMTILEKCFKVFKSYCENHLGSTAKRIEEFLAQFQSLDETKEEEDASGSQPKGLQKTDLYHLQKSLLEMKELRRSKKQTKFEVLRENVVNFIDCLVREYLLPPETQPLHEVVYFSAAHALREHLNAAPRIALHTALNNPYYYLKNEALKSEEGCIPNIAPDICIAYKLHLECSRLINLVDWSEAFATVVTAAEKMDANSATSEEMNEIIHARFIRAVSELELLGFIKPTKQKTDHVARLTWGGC

[4] = target: T4, Flag tagged ORC5, O43913
T4 chain: T1 sequence

[5] = target: T5, human ORC1 with C-terminal Flag-HA tag (human, UniProt Q13415 1-861); experiment: TAP-TAG (tandem Flag/HA immunoprecipitation from HeLa S3 nuclear extract), silver staining and mass spectrometry
T5 construct: Stably expressed in HeLa S3 cells; also called ORC1 FLAG-HA; FLAG-HA tagged ORC1; not shown: in-frame C-terminal Flag-HA tag of pOZ-FH-C
T5 sequence: T2 chain
Experimental: The beads were washed twice with 1 mL of HA-IP Buffer (150 mM KCl; 20 mM Tris pH 7.5 0.05% NP40; 0.1% Tween; 10% Glycerol; 5 mM MgCl₂; 1 mM DTT and 10 mM PMSF). After the last centrifugation, beads were resuspended in HA-IP Buffer (1 vol of Beads). Extracts were incubated with Flag beads for 4 h with agitation at 4 C. Beads were pelleted (3 min at 3000 rpm 4° C.). Beads were washed 5 times with HA IP Buffer: Beads are pelleted (3K 3 min 4° C.) and the supernatant discarded. Complexes were eluted from the beads by incubating in 3 beads volume of HA IP Buffer supplemented with Flag peptide (200 μg/mL, Sigma) for 1 hour at 4 C with agitation. The supernatant was kept on ice and a second elution was conducted. The eluates were pooled and subjected to an anti-HA immunoprecipitation. Before, anti-HA coupled agarose beads (SantaCruz Biotechnology) were washed with glycine buffer as described above. 10 μL of beads was used per IP. Flag eluates were incubated with anti-HA beads for 2 hours at 4 C with agitation. Beads were pelleted (3 min at 3000 rpm 4° C.). Beads were washed 5 times with HA IP Buffer: Beads are pelleted (3K 3 min 4° C.) and the supernatant discarded. Complexes were eluted from the beads by incubating in 3 beads volume of HA IP Buffer supplemented with HA peptide (400 μg/mL, Roche) for 1 hour at 4 C with agitation. The supernatant was keep on ice and a second elution was conducted. […]

[6] = target: T6, Flag tagged ORC1 (N-terminal Flag, pCS2-Flag) (human, UniProt Q13415 1-861); experiment: anti-Flag co-immunoprecipitation from U2OS cells, western blot with anti-Myc
T6 construct: Transiently expressed in U2OS cells; also called Flag-ORC1
T6 sequence: T2 chain
Experimental: For cell lysis, immunoprecipitation and western blotting were performed following standard methods. Briefly, cells were lysed in TK300 lysis buffer (20 mM Tris-HCl pH 7.9; 300 mM KCl, 5 mM MgCl2, 10% glycerol; 0.5% NP-40 plus protease inhibitors cocktail) on ice for 30 min. The protein concentration of the clarified lysates was estimated using the BCA method (Pierce). For immunoprecipitation experiments, equivalent amounts of protein samples were incubated at 4° C. with anti-Flag coupled agarose beads (Sigma Aldrich) for 4 h. After extensive washing with TK300 lysis buffer, bound proteins were eluted in boiling Laemmli buffer. Samples were runs on pre-cast gradient gel (NuPage Novex, Invitrogen and Mini-PROTEAN TGX, Biorad) and transferred to nitrocellulose membrane.
U20S cells were transiently transfected with plasmids coding for Myc-tagged WT Obi1 or mutated Obi1, and also co-transfected with plasmids coding for Flag-ORC1. 48 hours post-transfection, cells were lyzed and the soluble fraction was subjected to an anti-Flag immunoprecipitation (IP:Flag—FIG. 24B). Ectopic proteins were detected by western blotting. Under these conditions, specific Obi1/ORC1 complex is detected in the immunoprecipitate. In contrast, no association is observed between ORC1 and the mutated Obi1 protein (FIG. 24B).

Xenopus Myc6-tagged Obi1 WT
ubiquitination of Flag-ORC5 (high-molecular weight ubiquitin adducts after anti-Flag IP) [1]: both human and xenopus Obi1, sharing 35% identity of their amino acid sequence, are able to ubiquitinate ORC5

B1: ORC Ubiquitin-ligase 1 (OBI1), human, endogenous protein of the cells (enzyme)
chain: MAQTVQNVTLSLTLPITCHICLGKVRQPVICINNHVFCSICIDLWLKNNSQCPACRVPITPENPCKEIIGGTSESEPMLSHTVRKHLRKTRLELLHKEYEDEIDCLQKEVEELKSKNLSLESQIKTILDPLTLVQGNQNEDKHLVTDNPSKINPETVAEWKKKLRTANEIYEKVKDDVDKLKEANKKLKLENGGLVRENLRLKAEVDNRSPQKFGRFAVAALQSKVEQYERETNRLKKALERSDKYIEELESQVAQLKNSSEEKEAMNSICQTALSADGKGSKGSEEDVVSKNQGDSARKQPGSSTSSSSHLAKPSSSRLCDTSSARQESTSKADLNCSKNKDLYQEQVEVMLDVTDTSMDTYLEREWGNKPSDCVPYKDEELYDLPAPCTPLSLSCLQLSTPENRESSVVQAGGSKKHSNHLRKLVFDDFCDSSNVSNKDSSEDDISRSENEKKSECFSSPKTGFWDCCSTSYAQNLDFESSEGNTIANSVGEISSKLSEKSGLCLSKRLNSIRSFEMNRTRTSSEASMDAAYLDKISELDSMMSESDNSKSPCNNGFKSLDLDGLSKSSQGSEFLEEPDKLEEKTELNLSKGSLTNDQLENGSEWKPTSFFLLSPSDQEMNEDFSLHSSSCPVTNEIKPPSCLFQTEFSQGILLSSSHRLFEDQRFGSSLFKMSSEMHSLHNHLQSPWSTSFVPEKRNKNVNQSTKRKIQSSLSSASPSKATKS
notes: Untagged endogenous Obi1 of HeLa S3 or U2OS cells, co-purified with tagged baits or acting on transfected ORC subunits; also called RNF219; Obi1/RFN219
ubiquitination of Flag tagged ORC subunits (HA-ubiquitin adducts after anti-Flag IP) [2]: OC1, ORC3 and ORC5 are ubiquitinated in presence of Obi1 | poly-ubiquitination of Flag ORC3 after siRNA knockdown of Obi1 [3]: cells that does not express Obi1 are not able to poly-ubiquitinate either ORC3 or ORC5 | ubiquitination of Flag tagged ORC subunits (HA-ubiquitin adducts after anti-Flag IP) [3]: OC1, ORC3 and ORC5 are ubiquitinated in presence of Obi1, and in particular that ORC3 and ORC5 show strong polyubiquitylation | poly-ubiquitination of Flag ORC5 after siRNA knockdown of Obi1 [4]: cells that does not express Obi1 are not able to poly-ubiquitinate either ORC3 or ORC5 | ubiquitination of Flag tagged ORC subunits (HA-ubiquitin adducts after anti-Flag IP) [4]: OC1, ORC3 and ORC5 are ubiquitinated in presence of Obi1, and in particular that ORC3 and ORC5 show strong polyubiquitylation | binding result [5]: binds

B2: human Myc6-tagged Obi1 WT (protein)
chain: B1 chain
polyubiquitination of Flag-ORC5 (HA-ubiquitin adducts after anti-Flag IP) [4]: only the full length Obi1 protein is able to polyubiquitinate ORC5 | ubiquitination of Flag-ORC5 (high-molecular weight ubiquitin adducts after anti-Flag IP) [4]: both human and xenopus Obi1, sharing 35% identity of their amino acid sequence, are able to ubiquitinate ORC5

B3: Myc-tagged mutated Obi1 (truncated Obi1 protein of the Meier-Gorlin patient) (other)
chain: MAQTVQNVTLSLTLPITCHICLGKVRQPVICINNHVFCSICIDLWLKNNSQCPACRVPITPENPCKEIIGGTSESEPMLSHTVRKHLRKTRLELLHKEYEDEIDCLQKEVEELKSKNLSLESQIKTILDPLTLVQGNQNEDKHLVTDNPSKINPETVAEWKKKLRTANEIYEKVKDDVDKLKEANKKLKLENGGLVRENLRLKAEVDNRSPQKFGRFAVAALQSKVEQYERETNRLKKALERSDKYIEELESQVAQLKNSSEEKEAMNSICQTALSADGKGSKGSEEDVVSKNQGDSARKQPGSSTSSSSHLAKPSSSRLCDTSSARQESTSKADLNCSKNKDLYQEQVEVMLDVTDTSMDTYLEREWGNKPSDCVPYKDEELYDLPAPCTPLSLSCLQLSTPENRESSVVQAGGSKKHSNHLRKLVFDDFCDSSNVSNKDSSEDDISRSENEKKSVFFFPKDRILGLLFHKLCPKLRF
notes: also called C.1370_1371delAA,P.GLU457VALFSX24; not shown: Myc tag
binding result [6]: no binding
